Laboratory results: patent EP4711453A1, “PHENYLALANINE LYASE MUTANT, AND CONJUGATE THEREOF OR PHARMACEUTICALLY ACCEPTABLE SALT THEREOF” (Peg-Bio Biopharm Co., Ltd. (Chongqing), priority 2023, dated 2024)

Assays:
[1] = test system: anti-PEG-IgG; design: species or system rats; settings: rat, in vivo; for anti-PEG-IgG, Positive rate: sc, 0.75 mg/kg
Experimental: (§1) Polyethylene glycol conjugates of phenylalanine lyase or its mutant with different structures and modifier molecular weights, namely PL20, PL24, and PL54, were prepared according to the method described in Example 2. The phenylalanine lyase in PL20 has the amino acid sequence as set forth in SEQ ID NO: 1, and the polyethylene glycol has a molecular weight of 20K. The phenylalanine lyase in PL24 has the amino acid sequence as set forth in SEQ ID NO: 6, and the polyethylene glycol has a molecular weight of 2K. The phenylalanine lyase in PL54 has the amino acid sequence as set forth in SEQ ID NO: 6, and the polyethylene glycol has a molecular weight of 5K.
(§2) To evaluate the immunogenicity of PL20, PL24, and PL54 in animals, normal rats were selected and divided into 3 groups, with 6 rats per group (3 males and 3 females). Subcutaneous administration was performed at a dose of 0.75 mg/kg with PL54 (average degree of modification 13.6, 1.27 U/mg), PL24 (average degree of modification 13.3, 0.96 U/mg), and PL20 (average degree of modification 7.6, 1.14 U/mg) for the three groups, respectively. Administration was repeated 7 times, once weekly. Blood samples were collected 7 days after each administration. Serum anti-PEG-IgG and anti-PAL4 protein antibodies were detected by ELISA (refer to Example 5 for details). In the table, "1-7" indicated 7 days after the first administration, and "7-7" indicated 7 days after the seventh administration. x represented the average OD value of antibody detection by ELISA, and the positive rate represented the ratio of the number of antibody-positive animals to the total number of animals in the group. Table 6: Antibody titers in rats after multiple administrations of polyethylene glycol conjugates with different molecular weights

[2] = Specific enzyme activity of phenylalanine lyase (trans-cinnamic acid formation, absorbance at 290 nm); type: biochemical; settings: polyethylene glycol conjugates; method as for the proteins
Experimental: Phenylalanine lyase specifically catalyzes the conversion of phenylalanine into trans-cinnamic acid with the release of ammonia. […] Enzyme activity is defined as the amount of enzyme required to produce 1 µmol of trans-cinnamic acid per minute in buffer (100 mmol/L Tris-HCl, pH 8.5) at room temperature (25°C) as one unit of enzyme activity.
The specific enzyme activity of phenylalanine lyase and its mutants (i.e., PAL, PAL2, PAL3, and PAL4 proteins) prepared in Example 1 was evaluated by taking an appropriate amount of test sample and diluting it to 0.4 mg/ml using assay buffer (100 mmol/L Tris-HCl, pH 8.0). 2.9 ml of substrate solution (100 mmol/L Tris-HCl, 45 mmol/L Phe, pH 8.0) was placed in a cuvette, followed by addition of 0.1 ml of diluted test solution and immediate mixing. The changes in absorbance per minute were recorded at a wavelength of 290 nm, and the specific enzyme activity was calculated according to the formula. Enzyme activity (U/mg) = (AS−AO)VN × 10^6 /εLTV1 [formula]
Where AS and AO represent the absorbance of trans-cinnamic acid at the […] of the reaction, respectively; V is the total volume (L) of the reaction system; L is the optical path length of the cuvette (cm); ε is the molar extinction coefficient of trans-cinnamic acid (10238.1 L/(mol·cm)); T is the reaction time (min); N is the dilution factor of the test sample; V1 is the volume of test sample (ml).
The enzyme activity retention rate was calculated by comparing the specific enzyme activity of phenylalanine lyase mutants with the specific enzyme activity of the phenylalanine lyase. Table 2: Specific enzyme activity of phenylalanine lyase mutants
The specific enzyme activity of the polyethylene glycol conjugates of phenylalanine lyase and its mutants prepared in Step 1 of Example 2 was determined according to the method described in Step 1 of this example. The enzyme activity retention rate was calculated by comparing the specific enzyme activity of each conjugate with its specific enzyme activity prior to PEG modification (e.g., the enzyme activity retention rate of PL5-1 = specific enzyme activity of PL5-1 / specific enzyme activity of PAL protein). Table 3: Specific enzyme activity of PEGylated phenylalanine lyase mutants

[3] = test system: anti-PAL-IgG; experiment: Immunogenicity of conjugates with different PEG molecular weights in rats: anti-PAL-IgG (ELISA); type: in vivo; settings: 0.75 mg/kg s.c. once weekly
Experimental: as §1, §2

[4] = 1-7 (7 days after the first administration)
[5] = 1-7, antibody-positive animals / animals in the group
[6] = 7-7 (7 days after the seventh administration)
[7] = 7-7, antibody-positive animals / animals in the group

PL20: polyethylene glycol conjugate of phenylalanine lyase SEQ ID NO: 1, polyethylene glycol molecular weight 20K, average degree of modification 7.6 [reference compound]
anti-PEG-IgG antibody titer, comparison between groups [1]: higher than that in the PL24 and PL54 groups
anti-PEG-IgG, Positive rate [1]: Positive rate: 6/6
Specific enzyme activity [2]: 1.14 U/mg
anti-PAL-IgG, x (average OD value of antibody detection by ELISA) [3, 4]: x=0.118
anti-PAL-IgG, Positive rate [3, 5]: Positive rate: 1/6
anti-PAL-IgG, x (average OD value of antibody detection by ELISA) [3, 6]: x=0.102
anti-PAL-IgG, Positive rate [3, 7]: Positive rate: 1/6

B1: PL24: polyethylene glycol conjugate of phenylalanine lyase mutant SEQ ID NO: 6, polyethylene glycol molecular weight 2K, average degree of modification 13.3 (conjugate)
chain: MKTLSQAQSKTSSQQFSFTGNSSANVIIGNQKLTINDVARVARNGTLVSLTNNTDILQGIQASCDYINNAVKSGEPIYGVTSGFGGMANVAISREQASELQTNLVWFLKTGAGNKLPLADVRAAMLLRANSHMRGASGIRLELIKRMEIFLNAGVTPYVYEFGSIGASGDLVPLSYITGSLIGLDPSFKVDFNGKEMDAPTALRQLNLSPLTLLPKEGLAMMNGTSVMTGIAANCVYDTKILTAIAMGVHALDIQALNGTNQSFHPFIHNSKPHPGQLWAADQMISLLANSQLVRDELDGKHDYRDHELIQDRYSLRCLPQYLGPIVDGISQIAKQIEIEINSVTDNPLIDVDNQASYHGGNFLGQYVGMGMDHLRYYIGLLAKHLDVQIALLASPEFSNGLPPSLLGNRERKVNMGLKGLQICGNSIMPLLTFYGNSIADRFPTHAEQFNQNINSQGYTSATLARKSVDIFQNYVAIALMFGVQAVDLRTYKKTGHYDARASLSPATERLYSAVRHVVGQKPTSDRPYIWNDNEQGLDEHIAKISADIAAGGVIVQAVQDILPSLH
modifications: PEG 2K conjugate, ~13.3 PEG per molecule
anti-PEG-IgG, Positive rate [1]: Positive rate: 6/6
Specific enzyme activity [2]: 0.96 U/mg
anti-PAL-IgG, x (average OD value of antibody detection by ELISA) [3, 4]: x=0.130
anti-PAL-IgG, Positive rate [3, 5]: Positive rate: 4/6
anti-PAL-IgG, x (average OD value of antibody detection by ELISA) [3, 6]: x=0.891
anti-PAL-IgG, Positive rate [3, 7]: Positive rate: 6/6
